Assays:
[1] = test system: IgG, polyclonal (Mus musculus); assay: FP; conditions: 10 nM DNA, 1 uM IgG, PBS pH 7.0, 45 min
[2] = test system: IgG Fab2 fragment (Mus musculus); assay: filter; conditions: 37.5 mM NaCl, 3.75 mM sodium citrate, pH 6.0
[3] = test system: IgA, monoclonal (Homo sapiens); assay: filter; conditions: 37.5 mM NaCl, 3.75 mM sodium citrate, pH 6.0
[4] = test system: IgG3, monoclonal (Homo sapiens); assay: filter; conditions: 37.5 mM NaCl, 3.75 mM Na citrate, pH 6.0
[5] = test system: IgG, polyclonal (Mus musculus); assay: filter; conditions: 37.5 mM NaCl, 3.75 mM sodium citrate, pH 6.0
[6] = test system: IgM, monoclonal (Homo sapiens); assay: filter; conditions: 37.5 mM NaCl, 3.75 mM sodium citrate, pH 6.0
[7] = test system: IgG Fab2 fragment (Homo sapiens); assay: filter; conditions: 37.5 mM NaCl, 3.75 mM sodium citrate, pH 6.0
[8] = test system: IgG Fc fragment (Homo sapiens); assay: filter; conditions: 37.5 mM NaCl, 3.75 mM sodium citrate, pH 6.0
[9] = test system: IgG4, monoclonal (Homo sapiens); assay: filter; conditions: 37.5 mM NaCl, 3.75 mM Na citrate, pH 6.0
[10] = test system: IgG2, monoclonal (Homo sapiens); assay: filter; conditions: 37.5 mM NaCl, 3.75 mM sodium citrate, pH 6.0
[11] = test system: IgG, polyclonal (ChromPure) (Homo sapiens); assay: filter; conditions: ultrafiltration, 41 mM Na+, pH 6
[12] = test system: IgG1, monoclonal (Homo sapiens); assay: filter; conditions: 37.5 mM NaCl, 3.75 mM sodium citrate, pH 6.0
[13] = hexaethylene glycol (iSp18) linkers as both loops

Sequence | Ka (log10 Ka (M-1)) [2] | Ka (log10 Ka (M-1)) [3] | Ka (log10 Ka (M-1)) [5] | Ka (log10 Ka (M-1)) [6] | Ka (log10 Ka (M-1)) [7] | Ka (log10 Ka (M-1)) [10] | Ka (log10 Ka (M-1)) [12] | Ka [4] | Ka [9] | other results
AGGCCGCGCCCCCCGCGCCCACCGCCCCGGTGCC [RAD29] |  |  |  |  |  |  |  |  |  | binding signal (% polarization change) [1]: 19
CCCTCCCTGGGCTTTTTTTGATTTTTCTTAA [RAD4] | 7.09 | 7.66 | 7.71 | 6.89 | 6.89 | 7.67 | 7.52 |  |  | Ka ([4]; control oligo): 6.66 log10 M-1; Ka (log10 Ka (M-1)) [8]: 5.26; Ka ([9]; control oligo): 7.13 log10 M-1; Ka (log10 Ka (M-1)) ([11]; pH 5 8.48, pH 7 7.10, pH 8 7.02): 8.13
CCTCTTCCTTCTCCGGAGAAG [RAD1] |  |  |  |  |  |  |  |  |  | Ka ([4]; two hexaethylene glycol (iSp18) linkers as loops [iSp18 (hexaethylene glycol) linkers left out between 7-8 and 14-15], ultrafiltration, Picogreen): 6.17 log10 M-1; Ka ([9]; two hexaethylene glycol (iSp18) linkers as loops [iSp18 (hexaethylene glycol) linkers left out between 7-8 and 14-15]): 6.37 log10 M-1
CCTCTTCHEGCTTCTCCHEGGGAGAAG [RAD1] |  |  |  |  |  |  |  |  |  | Ka (log10 Ka (M-1)) [2, 13]: 6.38; Ka (log10 Ka (M-1)) [3, 13]: 6.37; Ka (log10 Ka (M-1)) [5, 13]: 6.6; Ka (log10 Ka (M-1)) [6, 13]: 6.32; Ka (log10 Ka (M-1)) [7, 13]: 5.82; Ka (log10 Ka (M-1)) [8, 13]: 5.8; Ka (log10 Ka (M-1)) [10, 13]: 6.51; Ka (log10 Ka (M-1)) ([11]; hexaethylene glycol (iSp18) linkers as both loops, pH 5 7.45, pH 7 6.49, pH 8 6.30): 6.51; Ka (log10 Ka (M-1)) [12, 13]: 6.38
CCTCTTCTTTTTCTTCTC [RAD20] | 7.41 | 7.53 | 8.3 | 7.02 | 6.9 | 7.85 | 7.34 | 6.84 log10 M-1 | 7.67 log10 M-1 | Ka (log10 Ka (M-1)) [8]: 5.96; Ka (log10 Ka (M-1)) ([11]; pH 5 8.11, pH 7 7.40, pH 8 6.64): 7.98
CCTCTTCTTTTTCTTCTCCTTTTTGGAGAAG [RAD2] | 6.71 | 6.9 | 7.49 | 6.73 | 6.45 | 7.06 | 7.04 | 6.64 log10 M-1 | 7.08 log10 M-1 | Ka (log10 Ka (M-1)) [8]: 5.86; Ka (log10 Ka (M-1)) ([11]; pH 5 8.74, pH 7 6.96, pH 8 6.57): 7.61
CCTTCCTTTGGAAGGTTG [RAD23] | 6.33 | 6.38 | 6.77 | 6.08 | 5.64 | 6.86 | 6.14 | 5.62 log10 M-1 | 5.97 log10 M-1 | Ka (log10 Ka (M-1)) ([11]; pH 5 7.37, pH 7 6.31, pH 8 6.21): 6.88
CGCGAAAACGCG [RAD22] |  |  |  |  |  |  |  |  |  | Ka (log10 Ka (M-1)) ([11]; pH 5 5.95, pH 7 6.04, pH 8 5.97): 6.25
CTCTCTCTTTTTCTCTCTCTTTTTGAGAGAG [RAD9] | 6.75 | 6.95 | 7.46 | 6.79 | 6.44 | 7.05 | 7.05 | 6.62 log10 M-1 | 7.06 log10 M-1 | Ka (log10 Ka (M-1)) [8]: 5.87; Ka (log10 Ka (M-1)) ([11]; pH 5 8.67, pH 7 7.04, pH 8 6.94): 7.74
GAGAGAGTTTTTGAGAGAGTTTTTCTCTCTC [RAD7] | 6.97 | 7.33 | 7.69 | 6.89 | 6.68 | 7.25 | 7.3 | 6.74 log10 M-1 | 7.16 log10 M-1 | Ka (log10 Ka (M-1)) [8]: 5.99; Ka (log10 Ka (M-1)) ([11]; pH 5 8.51, pH 7 6.97, pH 8 6.79): 8.04
GAGTGAGTCTCAGTTAGTTTCGATTGATTCT [RAD5] |  |  |  |  |  |  |  |  |  | Ka (log10 Ka (M-1)) ([11]; pH 5 8.75, pH 7 7.11, pH 8 6.81): 8.03
GGAAAGGTTTTTGGAAAGGTTTTTCCTTTCC [RAD6] |  |  |  |  |  |  |  |  |  | Ka (log10 Ka (M-1)) ([11]; pH 5 8.50, pH 7 6.86, pH 8 6.74): 7.96
GGAGGTGCTCCGAAAGGAACTCC [RAD30] |  |  |  |  |  |  |  |  |  | binding signal (% polarization change) [1]: 15
GGTTGGTTTGGTTGG [RAD13 (TTT-aptamer)] |  |  |  |  |  |  |  |  |  | Ka (log10 Ka (M-1)) ([11]; pH 5 7.55, pH 7 6.46, pH 8 6.53): 6.96
TCCCTTTCCCTTTCCCTTTCCC [RAD28] |  |  |  |  |  |  |  |  |  | binding signal (% polarization change) [1]: 22
TCCTCTTCTTTTTCTTCTC [RAD24] |  |  |  |  |  |  |  |  |  | binding signal (% polarization change) [1]: 21
TCCTTTCCTTTCCTTTCCT [RAD27] |  |  |  |  |  |  |  |  |  | binding signal (% polarization change) [1]: 22
TCTCTCTCTCTCTCTCTCT [RAD26] |  |  |  |  |  |  |  |  |  | binding signal (% polarization change) [1]: 38
TGGAGTCTGCGCGAGTCAGCGCTCAAGATC [RAD8] |  |  |  |  |  |  |  |  |  | Ka (log10 Ka (M-1)) ([11]; pH 5 8.41, pH 7 6.86, pH 8 6.84): 7.85
TGGGCCGGTAACGGATTACCGTAAGGTCCC [RAD11] |  |  |  |  |  |  |  |  |  | Ka (log10 Ka (M-1)) ([11]; pH 5 8.31, pH 7 6.85, pH 8 6.85): 7.64
TGGGCCGGTAACGGGTTACCGTAAGGTCCC [RAD10] | 6.76 | 6.92 | 7.53 | 6.7 | 6.43 | 7.01 | 7.04 | 6.62 log10 M-1 | 7 log10 M-1 | Ka (log10 Ka (M-1)) [8]: 5.92; Ka (log10 Ka (M-1)) ([11]; pH 5 8.41, pH 7 6.81, pH 8 6.72): 7.65
TGGTTGGTTTTTGGAAGGATTTTTTCCTTCC [RAD3] | 7.09 | 7.38 | 7.69 | 6.71 | 6.97 | 7.36 | 7.45 | 6.69 log10 M-1 | 7.2 log10 M-1 | Ka (log10 Ka (M-1)) [8]: 6.34; Ka (log10 Ka (M-1)) ([11]; pH 5 8.60, pH 7 6.86, pH 8 6.76): 7.79
TTCCTTCCTTCCTTCCTTC [RAD25] |  |  |  |  |  |  |  |  |  | binding signal (% polarization change) [1]: 22
TTTGGTTGGTTTGGTTGG [RAD19] |  |  |  |  |  |  |  |  |  | Ka (log10 Ka (M-1)) ([11]; inosine at I positions [inosine at 4,14], pH 5 7.82, pH 7 6.50, pH 8 6.04): 7.14
TTTTCGCGCGTACGCGCGCGAA [RAD15] | 6.21 | 6.23 | 6.35 | 6.19 | 5.33 | 6.18 | 6.39 | 6.22 log10 M-1 | 6.13 log10 M-1 | Ka (log10 Ka (M-1)) ([11]; pH 5 7.65, pH 7 6.33, pH 8 6.19): 7
TTTTCGCGCGTTAACGCGCGAA [RAD16] | 6.11 | 6.46 | 7.07 | 6.26 | 6.23 | 6.11 | 6.87 | 6.31 log10 M-1 | 6.54 log10 M-1 | Ka (log10 Ka (M-1)) ([11]; pH 5 8.22, pH 7 7.25, pH 8 6.79): 7.8
TTTTCGCGTGTGTGCGCGAA [RAD12] |  |  |  |  |  |  |  |  |  | Ka (log10 Ka (M-1)) ([11]; pH 5 7.61, pH 7 6.37, pH 8 5.74): 6.98

From patent US20100233678
